From patent publication US20090148408A1

Target: envelope glycoproteins of HIV-1HxB2 strain on Env-pseudotyped luciferase reporter virus (HIV-1 HxB2) (UniProt P04578)
Test: cell-based or functional assay

Row | Substance | inhibition of HIV-1 entry (luciferase activity at 48 hours), co-incubation of L. jensenii Xna-651 bacteria at 2.5x10^8/ml with virus and HeLa CD4-CXCR4 cells [%] | inhibition of HIV-1 entry (luciferase activity at 48 hours), co-incubation of L. jensenii Xna-651 bacteria at 5x10^8/ml with virus and HeLa CD4-CXCR4 cells [%]
1 | 2D-CD4 secreted by L. jensenii harboring pOSEL651 (P23 promoter-CbsAss-2D-CD4) (from UniProt P01730 26-208) | 79 | –
2 | 2D-CD4 secreted by L. jensenii harboring pOSEL651 (P23 promoter-CbsAss-2D-CD4) (from UniProt P01730 26-208) (receptor) | – | 90
